Experimental data from article doi:10.1101/2024.02.09.579451.

Biological target: T1, human Kir2.1 channel, wild type (Kir2.1-WT) (human), P63252
T1 chain: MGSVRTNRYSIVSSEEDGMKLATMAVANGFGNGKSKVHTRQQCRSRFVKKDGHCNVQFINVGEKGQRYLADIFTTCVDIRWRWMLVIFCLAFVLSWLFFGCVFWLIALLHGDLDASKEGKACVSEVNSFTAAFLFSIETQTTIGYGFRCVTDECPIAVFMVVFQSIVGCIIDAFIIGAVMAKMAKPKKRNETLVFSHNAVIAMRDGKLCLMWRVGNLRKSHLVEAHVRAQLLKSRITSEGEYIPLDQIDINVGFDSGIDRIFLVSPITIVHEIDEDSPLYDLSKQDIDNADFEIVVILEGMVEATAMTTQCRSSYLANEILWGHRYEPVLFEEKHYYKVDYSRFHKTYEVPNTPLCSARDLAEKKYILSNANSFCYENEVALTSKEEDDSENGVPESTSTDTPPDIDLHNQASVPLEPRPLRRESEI
Assay: SEC-MALLS
Conditions: remark: other sources report otherwise

stoichiometry N: 4
B1: human Kir2.1 channel, wild type (Kir2.1-WT), P63252 1-427 (natural protein)
chain: MGSVRTNRYSIVSSEEDGMKLATMAVANGFGNGKSKVHTRQQCRSRFVKKDGHCNVQFINVGEKGQRYLADIFTTCVDIRWRWMLVIFCLAFVLSWLFFGCVFWLIALLHGDLDASKEGKACVSEVNSFTAAFLFSIETQTTIGYGFRCVTDECPIAVFMVVFQSIVGCIIDAFIIGAVMAKMAKPKKRNETLVFSHNAVIAMRDGKLCLMWRVGNLRKSHLVEAHVRAQLLKSRITSEGEYIPLDQIDINVGFDSGIDRIFLVSPITIVHEIDEDSPLYDLSKQDIDNADFEIVVILEGMVEATAMTTQCRSSYLANEILWGHRYEPVLFEEKHYYKVDYSRFHKTYEVPNTPLCSARDLAEKKYILSNANSFCYENEVALTSKEEDDSENGVPESTSTDTPPDIDLHNQASVPLEPRPLRRESEI
